Experimental data reported in patent publication US20130115676.
Positions count from the first letter of the chain named.

Legend:
Assay in all cases: cleavage_in_vitro
[1] = molecular target: T1, HindIII (Haemophilus influenzae Rd) (UniProt P43870); conditions: NEB2, 10 mM MgCl2, 37 C
T1 sequence: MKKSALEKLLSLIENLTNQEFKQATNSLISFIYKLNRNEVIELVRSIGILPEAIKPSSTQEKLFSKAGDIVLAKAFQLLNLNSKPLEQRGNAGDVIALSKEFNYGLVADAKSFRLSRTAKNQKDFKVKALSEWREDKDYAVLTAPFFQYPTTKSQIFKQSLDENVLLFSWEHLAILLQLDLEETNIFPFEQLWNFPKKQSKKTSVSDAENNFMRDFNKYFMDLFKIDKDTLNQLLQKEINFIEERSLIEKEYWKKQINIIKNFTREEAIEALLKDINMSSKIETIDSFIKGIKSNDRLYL

[2] = tested on: T2, SphI-HF K100A (Streptomyces phaeochromogenes); conditions: NEB4, 10 mM Mg acetate, 37 C
T2 sequence: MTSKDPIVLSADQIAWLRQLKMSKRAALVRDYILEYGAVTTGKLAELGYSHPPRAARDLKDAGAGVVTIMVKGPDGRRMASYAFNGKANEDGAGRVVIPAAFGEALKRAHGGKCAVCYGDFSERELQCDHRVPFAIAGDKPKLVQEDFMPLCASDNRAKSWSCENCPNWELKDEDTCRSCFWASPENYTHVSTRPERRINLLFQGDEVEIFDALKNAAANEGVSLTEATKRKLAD

[3] = molecular target: T3, BamHI (Bacillus amyloliquefaciens) (UniProt P23940); conditions: NEB3, 10 mM MgCl2, 37 C
T3 sequence: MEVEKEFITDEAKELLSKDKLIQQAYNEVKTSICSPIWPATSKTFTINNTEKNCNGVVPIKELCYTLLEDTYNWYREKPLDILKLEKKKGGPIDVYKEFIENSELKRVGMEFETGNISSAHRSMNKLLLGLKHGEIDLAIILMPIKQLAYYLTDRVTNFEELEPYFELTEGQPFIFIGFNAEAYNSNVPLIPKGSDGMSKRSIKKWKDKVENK

[4] = molecular target: EcoRI (Escherichia coli RY13) (UniProt P00642); conditions: NEB3, 10 mM MgCl2, 37 C
[5] = tested on: T4, BspQI (Bacillus sphaericus); conditions: NEB3, 10 mM MgCl2, 50 C
T4 sequence: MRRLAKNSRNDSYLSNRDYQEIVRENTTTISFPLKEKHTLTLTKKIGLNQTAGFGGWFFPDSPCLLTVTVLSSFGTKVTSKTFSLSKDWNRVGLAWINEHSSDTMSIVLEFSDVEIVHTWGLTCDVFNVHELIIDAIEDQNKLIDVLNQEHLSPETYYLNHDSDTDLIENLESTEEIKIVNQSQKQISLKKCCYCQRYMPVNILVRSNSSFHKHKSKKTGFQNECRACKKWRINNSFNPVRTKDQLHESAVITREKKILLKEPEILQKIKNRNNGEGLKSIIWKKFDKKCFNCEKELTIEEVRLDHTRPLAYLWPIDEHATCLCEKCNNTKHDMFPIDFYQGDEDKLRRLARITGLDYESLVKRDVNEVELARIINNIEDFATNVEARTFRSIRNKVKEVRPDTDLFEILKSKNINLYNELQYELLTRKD

[6] = tested on: T5, NcoI-HF A2T/R31A (Nocardia corallina); conditions: NEB4, 10 mM Mg acetate, 37 C
T5 sequence: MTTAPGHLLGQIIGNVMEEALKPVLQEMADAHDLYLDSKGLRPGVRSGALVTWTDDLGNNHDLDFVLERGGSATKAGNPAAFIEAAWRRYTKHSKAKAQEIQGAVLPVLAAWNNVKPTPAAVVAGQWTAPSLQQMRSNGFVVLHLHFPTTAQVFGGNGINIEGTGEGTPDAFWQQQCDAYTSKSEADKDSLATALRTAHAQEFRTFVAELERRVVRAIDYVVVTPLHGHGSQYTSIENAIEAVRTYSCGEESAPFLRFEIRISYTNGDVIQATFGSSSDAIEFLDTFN

[7] = molecular target: EcoRI-HF K62E (Escherichia coli RY13) (UniProt P00642); conditions: NEB4, 10 mM Mg acetate, 37 C
BsmBI = conditions: NEB3, 10 mM MgCl2, 55 C
[8] = tested on: T6, SapI (Saccharopolyspora sp.); conditions: NEB4, 10 mM Mg acetate, 37 C
T6 sequence: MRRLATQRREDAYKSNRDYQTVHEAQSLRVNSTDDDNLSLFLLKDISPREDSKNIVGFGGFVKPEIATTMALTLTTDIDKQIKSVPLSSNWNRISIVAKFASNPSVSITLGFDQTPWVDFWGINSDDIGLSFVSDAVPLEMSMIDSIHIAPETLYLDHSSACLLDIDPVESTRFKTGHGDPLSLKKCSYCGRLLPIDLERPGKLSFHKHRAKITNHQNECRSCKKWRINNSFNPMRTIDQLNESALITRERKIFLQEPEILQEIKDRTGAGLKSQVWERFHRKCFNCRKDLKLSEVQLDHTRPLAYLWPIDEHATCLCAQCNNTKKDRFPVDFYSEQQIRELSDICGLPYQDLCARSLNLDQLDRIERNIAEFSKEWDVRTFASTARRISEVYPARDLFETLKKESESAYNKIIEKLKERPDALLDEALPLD

[9] = molecular target: T7, HpaI (Haemophilus parainfluenzae) (UniProt P29537); conditions: NEB4, 10 mM Mg acetate, 37 C
T7 sequence: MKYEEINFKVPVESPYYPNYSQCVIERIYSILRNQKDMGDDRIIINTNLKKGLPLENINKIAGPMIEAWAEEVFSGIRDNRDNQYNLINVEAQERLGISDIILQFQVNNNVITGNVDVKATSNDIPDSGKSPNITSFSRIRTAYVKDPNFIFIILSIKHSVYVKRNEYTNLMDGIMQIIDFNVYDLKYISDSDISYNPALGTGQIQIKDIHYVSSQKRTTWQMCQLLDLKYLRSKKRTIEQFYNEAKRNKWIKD

[10] = tested on: T8, NcoI (Nocardia corallina); conditions: NEB1, 10 mM MgCl2, 37 C
T8 sequence: T5 sequence with T2A, A31R

lambda DNA
activity (fidelity index) [1]: 250
activity (fidelity index) [2]: 8000
activity (fidelity index) [3]: 32
activity (fidelity index) [4]: 250
activity (fidelity index) [5]: 32
activity (fidelity index) [6]: > 64000
activity (fidelity index) [7]: 16000
activity (fidelity index) (BsmBI): 120
activity (fidelity index) [8]: 16
activity (fidelity index) [9]: 16
activity (fidelity index) [10]: 120
